Consider two molecules from PMC2978731 (PLoS Pathogens, 2010).

Assay [1] concerns the target T1, 5-Helix (tag-less version) (HIV-1 group M subtype B, HXB2 (gp41 …)).
T1 construct: source: E. coli, purified from the insoluble fraction under denaturing conditions (Superdex-200, reverse-phase HPLC)
The assay is described as follows: ITC. The settings on record: both partners purified.

The target of assay [2] is T1, 5-Helix (tag-less version). The experiment in a line: cell-based or functional assay.
Assay [3] concerns the target T1, 5-Helix (tag-less version). The experiment in a line: ITC. The note with it: both partners purified. This is another data set of the same source.

B1: Fab D5 (Fab, V domains shown)
VH: QVQLVQSGAEVRKPGASVKVSCKASGDTFSSYAISWVRQAPGQGLEWMGGIIPIFGTANYAQAFQGRVTITANESTSTAYMELSSLRSEDTAIYYCARDNPTLLGSDYWGAGTLVTVSS
VL: DIQMTQSPSTLSASIGDRVTITCRASEGIYHWLAWYQQKPGKAPKLLIYKASSLASGAPSRFSGSGSGTDFTLTISSLQPDDFATYYCQQYSNYPLTFGGGTKLEIK
notes: also called D5 (Fab format); D5 antibody; source: provided by Joseph Joyce (Merck Research Laboratories)
A word on the Kd: it is the concentration at which binding is half-saturated. B1 showed a Kd in assay [1] of around 10 nM. Also, in assay [2], the “HIV-1 neutralization IC50, Env-pseudotyped virus, 89.6 Env” value worked out at 890 nM; the “HIV-1 neutralization IC50, Env-pseudotyped virus, HXB2 Env” value is 300 nM; the “HIV-1 neutralization IC50, Env-pseudotyped virus, JR CSF Env” value came to 640 nM; the “HIV-1 neutralization IC50, Env-pseudotyped virus, SF162 Env” value came out at 1300 nM.

B2: IgG D5 (antibody, V domains shown)
VH: B1 VH
VL: B1 VL
notes: also called D5 monoclonal antibody; D5 IgG; source: provided by Joseph Joyce (Merck Research Laboratories); copies: 2 + 2
For B2, the “stoichiometry N” value in assay [3] was 2 5-Helix per D5 IgG. In assay [1], this molecule showed a Kd below 20 nM. In assay [2], the “HIV-1 neutralization IC50, Env-pseudotyped virus, 89.6 Env” value was determined as 2240 nM; the “HIV-1 neutralization IC50, Env-pseudotyped virus, HXB2 Env” value came to 230 nM; the “HIV-1 neutralization IC50, Env-pseudotyped virus, JR CSF Env” value was found to be 640 nM; the “HIV-1 neutralization IC50, Env-pseudotyped virus, SF162 Env” value was 940 nM.
